Drawing on publication PMC3327698, “Binding Properties and Stability of the Ras-Association Domain of Rap1-GTP Interacting Adapter Molecule (RIAM)” (PLoS ONE, 2012), this text covers Kd for two molecules.

First the molecules themselves.
T1: GST-RIAM150-502 (RA and PH domains) (human, UniProt Q7Z5R6 150-502)
T1 construct: Modified pGEX-4T3 vector with a TEV protease site; also called RA-PH domain pair; source: E. coli BL21 GOLD, purified (Glutathione Sepharose, SEC); not shown: GST, N-terminal, kept
T1 sequence (looked up): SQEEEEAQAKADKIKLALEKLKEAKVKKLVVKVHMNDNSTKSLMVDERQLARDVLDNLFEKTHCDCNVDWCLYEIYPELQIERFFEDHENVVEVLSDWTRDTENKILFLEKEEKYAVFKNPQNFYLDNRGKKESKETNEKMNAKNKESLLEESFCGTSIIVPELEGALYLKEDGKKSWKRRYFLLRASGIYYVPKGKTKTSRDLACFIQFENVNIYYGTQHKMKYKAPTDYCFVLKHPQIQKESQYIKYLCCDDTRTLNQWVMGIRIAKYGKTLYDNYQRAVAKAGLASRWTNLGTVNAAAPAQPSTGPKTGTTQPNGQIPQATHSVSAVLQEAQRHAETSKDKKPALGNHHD

B1: GST-RIAM150-261 (RA domain) (domain or fragment, human, UniProt Q7Z5R6 150-261, looked up)
chain: SQEEEEAQAKADKIKLALEKLKEAKVKKLVVKVHMNDNSTKSLMVDERQLARDVLDNLFEKTHCDCNVDWCLYEIYPELQIERFFEDHENVVEVLSDWTRDTENKILFLEKE
notes: Modified pGEX-4T3 vector with a TEV protease site between GST and RIAM; also called RIAM RA domain construct; GST-RIAM-RA; source: E. coli BL21 GOLD, purified (Glutathione Sepharose, SEC); not shown: GST, N-terminal, kept
B2: Rap1B (amino acids 1-167) (domain or fragment, UniProt P61224 1-167, looked up)
chain: MREYKLVVLGSGGVGKSALTVQFVQGIFVEKYDPTIEDSYRKQVEVDAQQCMLEILDTAGTEQFTAMRDLYMKNGQGFALVYSITAQSTFNDLQDLREQILRVKDTDDVPMILVGNKCDLEDERVVGKEQGQNLARQWNNCAFLESSAKSKINVNEIFYDLVRQINR
notes: small GTPase Rap1B, amino acids 1-167 (C-terminus excluded); loaded with Gpp(NH)p or GDP before the assay; One molecule for both nucleotide states; Construct pGEX-4T3/Rap1B came from A. Wittinghofer; also called Rap1B-Gpp(NH)p; Rap1B-GTP; source: E. coli BL21 GOLD, purified (Glutathione Sepharose, nucleotide exchange, SEC)

Assay [1] addresses B2. In words: pull-down; quantitative: GST-RIAM on Glutathione Sepharose 4B; Rap1B-Gpp(NH)p at 0.05, 0.1, 0.3, 0.5, 0.7 and 1.0 µM; Buffer A; anti-Rap1 Western blot, densitometry, nonlinear regression (GraphPad Prism). Particulars: both partners purified. Background: A western blot detects proteins with antibodies after separation by electrophoresis.
Assay [2] has as its target T1, GST-RIAM150-502 (RA and PH domains). The assay is described as above. The following applies: both partners purified.

B1: binding in assay [1] was put at a Kd of 330 ± 90 nM.
With B2, the dissociation constant (Kd) (in general, the concentration at which binding is half-saturated) in assay [2] stood at 700 ± 400 nM.
